In publication PMC9916804:

Tests used:
[1] = target: gametogenesis essential protein 1 (GEP1), truncation GEP1^192-905, Strep-tagged (Plasmodium yoelii); assay: pull-down; mutants of mEGFP-GCα^2301-3850 with Strep-tagged GEP1^192-905 on Strep-Tactin beads; GFP intensity of the eluates against WT; whether co-expressed or mixed is not stated
[2] = target: gametogenesis essential protein 1 (GEP1), truncation GEP1^192-905, Strep-tagged; assay: pull-down (Strep-Tactin beads), GFP intensity of elution; parameters: reference not given here; conditions: co-expression of GEP1-192-905 and GCα-2301-3850; parent: est. 100; read off a plot

Substance | GFP intensity of the pull-down eluate, percent of WT [1] | percent of parent [2] [%]
GCα^2301-3850 (GCα-C) Q2755A, mEGFP-tagged (domain or fragment) | 49.2 % of WT | 
guanylate cyclase α C-terminal half, GCα^2301-3850, with N-terminal mEGFP D3598A |  | 110
guanylate cyclase α C-terminal half, GCα^2301-3850, with N-terminal mEGFP D3642V |  | 100
guanylate cyclase α C-terminal half, GCα^2301-3850, with N-terminal mEGFP E2794A |  | 80
guanylate cyclase α C-terminal half, GCα^2301-3850, with N-terminal mEGFP N3724W |  | 110
guanylate cyclase α C-terminal half, GCα^2301-3850, with N-terminal mEGFP S2910W |  | 74
